Measurements: patent US9260754B2, “Connexin mutation detection for lymphatic variation and disease” (University of Pittsburgh—Of the Commonwealth System of …, priority 2010, dated 2016)

Test system: HeLa cell pairs
Experiment: Dual whole cell patch clamp recording of coupling current in transfected HeLa cell pairs
Type: cell-based, human
Details: for elect coupling: Table 3 (Example 2); for elect coupling / electrical coupling: HeLa cell pairs, 100 mV step, mean ± SEM; for electrical coupling: Table 6 (Example 4); for electrical coupling / functional channels in HeLa cell pairs (in words): transfected HeLa cell pairs, voltage step protocol −100 to +100 mV
Experimental: Coupling currents were recorded using simultaneous double whole-cell patch clamp recordings from isolated pairs of cells that were in contact with one another (determined visually) as previously described. Briefly, the pipette solution consisted of (mM): 130 CsCl, 10 EGTA, 10 HEPES, 3 Mg-ATP, 2 Na-ATP, 0.5 CaCl2, pH 7.3. The culture was bathed in a solution consisting of (mM): 140 NaCl, 5 HEPES, 5 glucose, 4 KCl, 2 CsCl, 2 CaCl2, 2 pyruvate, 1 BaCl2, pH 7.3. Transfected HeLas undergo electrophysiologic analysis in a blinded manner. Pairs of cells were chosen for study only if both expressed the GFP marker indicative of successful transfections; both stable and transient transfectants were analyzed. Patch pipettes were fabricated from borosilicate glass, and coupling currents were amplified by Axopatch 200A amplifiers, filtered at 1 KHz, and digitized at 5 KHz for subsequent analysis using pClamp software (Axon Instruments/Molecular Devices; Sunnyvale, Calif.). All experiments were carried out at room temperature (22° C.). Coupling current was quantified by measuring the peak current recorded in the pair when the neighboring cell received a 100 mV step membrane potential change (in both positive and negative directions). Step changes in membrane potential were delivered to each cell in the pair in sequence and the average current recorded in the neighboring cell was determined and divided by 100 to generate coupling current expressed in pA/mV. Means±SEM were calculated and statistical significance using a one-way analysis of variance and Tukey's post-hoc test, p<0.05.
Coupling current is quantified by measuring the peak current recorded in the pair when the neighboring cell receives a 100 mV step membrane potential change (in both positive and negative directions). Step changes in membrane potential are delivered to each cell in the pair in sequence and the average current recorded in the neighboring cell determined and divided by 100 to generate coupling current expressed in pA/mV (FIG. 6C). Replicate measurements (n=3-6) are made on at least two different days. […] The untransfected HeLa cell pairs also show minimal channel function, as predicted.
Electrophysiologic characteristics of GJIC were measured between HeLa cell pairs transfected with the mutant constructs (as indicated by EGFP expression) by dual whole cell patch clamp recording. All experiments were carried out in a blinded manner. Coupling current is quantified by measuring the peak current recorded in the pair when the neighboring cell receives a 100 mV step membrane potential change (in both positive and negative directions). Step changes in membrane potential are delivered to each cell in the pair in sequence and the average current recorded in the neighboring cell determined and divided by 100 to generate coupling current expressed in pA/mV. Untransfected HeLa cells and cells transfected with empty vector (i.e., no hCx47) were used as additional controls.

B1: G146S: Cx47 missense mutant G146S (436G>A), intracellular loop, construct expressed in HeLa cells or LECs (protein, listed as Homo sapiens)
chain: MSWSFLTRLLEEIHNHSTFVGKVWLTVLVVFRIVLTAVGGEAIYSDEQAKFTCNTRQPGCDNVCYDAFAPLSHVRFWVFQIVVISTPSVMYLGYAVHRLARASEQERRRALRRRPGPRRAPRAHLPPPHAGWPEPADLGEEEPMLSLGEEEEEEETGAAEGAGEEAEEAGAEEACTKAVGADGKAAGTPGPTGQHDGRRRIQREGLMRVYVAQLVARAAFEVAFLVGQYLLYGFEVRPFFPCSRQPCPHVVDCFVSRPTEKTVFLLVMYVVSCLCLLLNLCEMAHLGLGSAQDAVRGRRGPPASAPAPAPRPPPCAFPAAAAGLACPPDYSLVVRAAERARAHDQNLANLALQALRDGAAAGDRDRDSSPCVGLPAASRGPPRAGAPASRTGSATSAGTVGEQGRPGTHERPGAKPRAGSEKGSASSRDGKTTVWI
B1 was tested, and the elect coupling was 16.2 pA/mV, the electrical coupling was 32.4 pA/mV and the “electrical coupling / functional channels in HeLa cell pairs (in words)” value was “well coupled”.

B2: WT-hCx47: human wild type Cx47 construct in bicistronic pIRES2-EGFP vector, expressed in HeLa cells or LECs (protein, UniProt Q5T442 1-439, looked up)
Gap junction gamma-2 protein: MTNMSWSFLTRLLEEIHNHSTFVGKVWLTVLVVFRIVLTAVGGEAIYSDEQAKFTCNTRQPGCDNVCYDAFAPLSHVRFWVFQIVVISTPSVMYLGYAVHRLARASEQERRRALRRRPGPRRAPRAHLPPPHAGWPEPADLGEEEPMLGLGEEEEEEETGAAEGAGEEAEEAGAEEACTKAVGADGKAAGTPGPTGQHDGRRRIQREGLMRVYVAQLVARAAFEVAFLVGQYLLYGFEVRPFFPCSRQPCPHVVDCFVSRPTEKTVFLLVMYVVSCLCLLLNLCEMAHLGLGSAQDAVRGRRGPPASAPAPAPRPPPCAFPAAAAGLACPPDYSLVVRAAERARAHDQNLANLALQALRDGAAAGDRDRDSSPCVGLPAASRGPPRAGAPASRTGSATSAGTVGEQGRPGTHERPGAKPRAGSEKGSASSRDGKTTVWI
B2 was tested, and the elect coupling was 31.6 pA/mV, the electrical coupling was 35.9 pA/mV and the “electrical coupling / functional channels in HeLa cell pairs (in words)” value was “show evidence of voltage-dependent gating”. For the same molecule, the “electrical coupling / functional channels in HeLa cell pairs (in words)” value (listed as WT hCx47) was “well coupled” and the “electrical coupling / functional channels in HeLa cell pairs (in words)” value (listed as WT-hCX47-EGFP) was “well coupled”.
